The values that follow come from article PMC4682845 (PLoS ONE, 2015).

As a reminder, the koff is the rate constant with which the complex falls apart. As usually defined, the kon is the rate constant with which the complex forms. In general, Kd refers to a measure of binding affinity in units of concentration. A lower Kd goes with tighter binding.

For data set [1], the target named is […]-para-nitroanilide (TQ6-pNA) peptide substrate. The experiment in a line: ITC + other: steady-state kinetics. The following applies: both partners purified.
The data set “AUC” deals with the molecule itself. The data set is described as follows: AUC.

B1: SARS-CoV main protease (M^pro), wild type (enzyme)
chain: SGFRKMAFPSGKVEGCMVQVTCGTTTLNGLWLDDTVYCPRHVICTAEDMLNPNYEDLLIRKSNHSFLVQAGNVQLRVIGHSMQNCLLRLKVDTSNPKTPKYKFVRIQPGQTFSVLACYNGSPSGVYQCAMRPNHTIKGSFLNGSCGSVGFNIDYDCVSFCYMHHMELPTGVHAGTDLEGKFYGPFVDRQTAQAAGTDTTITLNVLAWLYAAVINGDRWFLNRFTTTLNDFNLVAMKYNYEPLTQDHVDILGPLSAQTGIAVLDMCAALKELLQNGMNGRTILGSTILEDEFTPFDVVRQCSGVTFQ
On to B1, for which, in data set [1], the koff turned out to be 0.084 s⁻¹ and the kon worked out at 2460 M⁻¹ s⁻¹. The molecule further came in with a Kd in “AUC” of 700 ± 20 nM.
